Laboratory results from paper PMC11091976, “Shorter Peptide Nucleic Acid Probes Improve Affibody-Mediated Peptide Nucleic Acid-Based Pretargeting” (ACS Pharmacology & Translational Science, 2024).
Marks after values point to notes of the source that are not given here.

What was measured:
[1] = in vivo; set-up: species or system BALB/C nu/nu mice; conditions: female, BALB/C nu/nu, mouse, total radioactivity
Text: Animal studies were planned in agreement with EU Directive 2010/63/EU for animal experiments and Swedish national legislation concerning the protection of laboratory animals and were approved by the Ethics Committee for Animal Research in Uppsala, Sweden (animal permission C4/16). HER2-positive xenografts were implanted by subcutaneous injection of 10^7 SKOV-3 cells in the right hind legs of female BALB/C nu/nu mice. Three weeks after implantation, mice were randomized into 8 groups, with 4 mice in each group. At the time of the experiment, the average animal weight was 20 ± 1 g. The average tumor weight was 0.26 ± 0.14 g. The mice were euthanized at predetermined time points by overdose of Ketamine/Xylazine anesthesia, followed by heart puncture. The organs of interest such as blood, lung, liver, spleen, kidney, muscle, bone, and tumor were collected, weighed, and subsequently their radioactivity was measured. Organs and tumor uptake were calculated as the percentage of the injected dose per gram of the sample (%ID/g).
To evaluate in vivo specificity, 2 groups of mice were injected with [^177Lu]Lu-HP16 and [^177Lu]Lu-HP20 without preinjection of the primary agent. At 4 h postinjection, the mice were euthanized and treated as mentioned above.
Table S2. Comparative biodistribution of [177Lu]Lu-HP16 and [177Lu]Lu-HP20 in BALB/C nu/nu mice bearing SKOV3
xenografts at 4 h post-injection without pre-injection of a primary agent. Data are presented as an average of %ID/g ± SD, n
*Significant (p<0.05) difference; **The gastrointestinal (GI) and carcass data are expressed as %ID per whole sample.

[2] = cited from earlier work
Method: Table 4 ^177Lu-Labeling of PNA-Based Probes and In Vitro Stability | column: stability in PBS, 37 °C, 1 h; stability (×500 EDTA), 37 °C, 1 h

[3] = system: SKOV-3 cells; assay: Cellular processing and retention (acid wash), SKOV-3; assay type: cell-based, human; conditions: SKOV-3 pretreated with 1 nM nonlabeled Z-HP9; labeled secondary probe 10 nM; n = 3
Method: (§1) After a 24 h incubation period, the total cell-associated bound activity was recorded as 72.0 ± 1.7 and 65.2 ± 1.8% for [^177Lu]Lu-Z-HP9, and 74.5 ± 0.2 and 55.6 ± 2.4% for [^177Lu]Lu-Z-HP12 on SKOV-3 and BT-474 cells, respectively. The internalized fractions were quantified as 9.7 ± 1.1 and 10.4 ± 0.6% for [^177Lu]Lu-Z-HP9 and [^177Lu]Lu-Z-HP12 after 24 h of incubation. The pattern was similar for both HER2-expressing cell lines, with slow internalization, which is typical for affibody molecules.
(§2) Figure 5 Cellular processing and retention of [^177Lu]Lu-Z-HP9 (A,B), [^177Lu]Lu-Z-HP12 (C,D), [^177Lu]Lu-HP16 (E,F), and [^177Lu]Lu-HP20 (G, H) on SKOV-3 (A,C,E,G) and BT-474 (B,D,F,H) cells after interrupted incubation with labeled compounds. […] The data are presented as an average value from three samples ±SD.
(§3) The pattern of internalization of the labeled secondary probes by cancer cells, which were pretreated with primary probes, was similar to the pattern for primary agents. […]
(§4) A validated acid-wash method[53] was used for cellular processing and retention of radiolabeled probes by SKOV-3 and BT-474 using interrupted incubation procedure. […] The radioactivity in each fraction was measured using an automated gamma spectrometer. The radioactivity of acidic and alkaline fractions was considered as membrane and internalized parts, respectively. […]

[4] = system: HER2-expressing cell lines pretreated with Z-HP9; assay: In vitro pretargeting specificity of secondary probes; assay type: cell-based, human; conditions: Z-HP9 1 nM, labeled secondary probe 10 nM, 1 h 37 °C; n = 3
Method: Figure 4 In vitro binding specificity of primary agents, (A) [^177Lu]Lu-Z-HP9 and (B) [^177Lu]Lu-Z-HP12 on SKOV-3 and BT-474 cell lines. […] In the second and third groups, cells were incubated with a large amount of unlabeled anti-HER2 ZHER2:342 affibody molecule and unlabeled secondary agent before the addition of radiolabeled secondary agent, respectively. A radiolabeled secondary agent was added directly to cells in the fourth group without adding a primary agent. The data are presented as an average value from three samples ±SD.
Figure 4C,D further elucidates the specificity of PNA-mediated pretargeting on HER2-expressing cell lines when cells were pretreated with a primary agent. […] These findings collectively affirm the success of the in vitro pretargeting approach.
Thereafter, ^177Lu-secondary probe (10 nM) was added, and cells were incubated for 1 h at 37 °C. After that, cells were treated as mentioned above. […] Then, a radiolabeled secondary probe (10 nM) was added and incubated for 1 h at 37 °C. Further treatment was the same as pretargeting group. […] Further treatment was the same as mentioned above. To evaluate unspecific binding, the radiolabeled secondary probe (10 nM) was added to the cells without any pretreatment with the primary agent and incubated for 1 h at 37 °C. After incubation, the cells were washed and treated as mentioned above.

[5] = system: BT-474 cells; assay: Cellular processing and retention (acid wash), BT-474; assay type: cell-based, human; conditions: BT-474 pretreated with 1 nM nonlabeled Z-HP9; labeled secondary probe 10 nM; n = 3
Method: as §1, §2, §3, §4

| Compound | tissue uptake at 4 h ([1]; Blood) [%ID/g] | tissue uptake at 4 h ([1]; Bone) [%ID/g] | tissue uptake dose at 4 h ([1]; Carcass) [%ID] | tissue uptake dose at 4 h ([1]; GI) [%ID] | tissue uptake at 4 h ([1]; Kidney) [%ID/g] | tissue uptake at 4 h ([1]; Liver) [%ID/g] | tissue uptake at 4 h ([1]; Lung) [%ID/g] | tissue uptake at 4 h ([1]; Muscle) [%ID/g] | tissue uptake at 4 h ([1]; Spleen) [%ID/g] | tissue uptake at 4 h ([1]; Tumour) [%ID/g] | stability (×500 EDTA), 37 °C, 1 h [2] | stability in PBS, 37 °C, 1 h [2] | total cell-associated bound activity after 24 h [3] [%] | binding to Z-HP9 pretreated cells relative to other treated groups [4] [fold] | total cell-associated bound activity after 24 h [5] [%] |
| --- | --- | --- | --- | --- | --- | --- | --- | --- | --- | --- | --- | --- | --- | --- | --- |
| NC(=O)[C@H](Cc1ccc(O)cc1)NC(=O)[C@H](CCC(=O)O)NC(=O)[C@H](CCC(=O)O)NC(=O)CN(CCNC(=O)CN(CCNC(=O)CN(CCNC(=O)CN(CCNC(=O)CN(CCNC(=O)CN(CCNC(=O)CN(CCNC(=O)CN(CCNC(=O)CN(CCNC(=O)[C@H](CO)NC(=O)[C@H](CO)NC(=O)COCCOCCNC(=O)CN1CCN(CC(=O)O)CCN(CC(=O)O)CCN(CC(=O)O)CC1)C(=O)Cn1cnc2c(N)ncnc21)C(=O)Cn1cnc2c(N)ncnc21)C(=O)Cn1ccc(N)nc1=O)C(=O)Cn1cnc2c(N)ncnc21)C(=O)Cn1ccc(N)nc1=O)C(=O)Cn1ccc(N)nc1=O)C(=O)Cn1cnc2c(N)ncnc21)C(=O)Cn1cnc2c(=O)[nH]c(N)nc21)C(=O)Cn1cnc2c(=O)[nH]c(N)nc21 [[^177Lu]Lu-HP16, metal not drawn] | 0.02 ± 0.02 | 0.04 ± 0.01 | 1.49 ± 0.42 | 0.61 ± 0.16 | 4.41 ± 0.61 | 0.13 ± 0.01 | 0.1 ± 0.03 | 0.05 ± 0.02 | 0.08 ± 0.01 | 0.09 ± 0.01 | 100 ± 0 ^a | 100 ± 0 ^a | 55.0 ± 1.0 | 11 | 26.1 ± 1.2 |
| NC(=O)[C@H](Cc1ccc(O)cc1)NC(=O)[C@H](CCC(=O)O)NC(=O)[C@H](CCC(=O)O)NC(=O)CN(CCNC(=O)CN(CCNC(=O)CN(CCNC(=O)CN(CCNC(=O)CN(CCNC(=O)CN(CCNC(=O)CN(CCNC(=O)CN(CCNC(=O)[C@H](CO)NC(=O)[C@H](CO)NC(=O)COCCOCCNC(=O)CN1CCN(CC(=O)O)CCN(CC(=O)O)CCN(CC(=O)O)CC1)C(=O)Cn1cnc2c(N)ncnc21)C(=O)Cn1ccc(N)nc1=O)C(=O)Cn1cnc2c(N)ncnc21)C(=O)Cn1ccc(N)nc1=O)C(=O)Cn1ccc(N)nc1=O)C(=O)Cn1cnc2c(N)ncnc21)C(=O)Cn1cnc2c(=O)[nH]c(N)nc21)C(=O)Cn1cnc2c(=O)[nH]c(N)nc21 [[^177Lu]Lu-HP20, metal not drawn] | 0.01 ± 0.004 | 0.03 ± 0.02 | 1.1 ± 0.34 | 1.25 ± 1.06 | 4.86 ± 0.85 | 0.15 ± 0.01 | 0.07 ± 0.01 | 0.02 ± 0.01 | 0.07 ± 0.01 | 0.11 ± 0.03 |  |  | 52.8 ± 0.4 | 11 | 42.2 ± 2.0 |
